Patent US20140227324A1

Target: mouse IL12Rβ1 (IL12 Receptor Beta 1, transmembrane-containing form) (mouse) (UniProt Q60837)
Assay: cell-based or functional assay

UniProt Q60837, sequence (Q60837 20-738): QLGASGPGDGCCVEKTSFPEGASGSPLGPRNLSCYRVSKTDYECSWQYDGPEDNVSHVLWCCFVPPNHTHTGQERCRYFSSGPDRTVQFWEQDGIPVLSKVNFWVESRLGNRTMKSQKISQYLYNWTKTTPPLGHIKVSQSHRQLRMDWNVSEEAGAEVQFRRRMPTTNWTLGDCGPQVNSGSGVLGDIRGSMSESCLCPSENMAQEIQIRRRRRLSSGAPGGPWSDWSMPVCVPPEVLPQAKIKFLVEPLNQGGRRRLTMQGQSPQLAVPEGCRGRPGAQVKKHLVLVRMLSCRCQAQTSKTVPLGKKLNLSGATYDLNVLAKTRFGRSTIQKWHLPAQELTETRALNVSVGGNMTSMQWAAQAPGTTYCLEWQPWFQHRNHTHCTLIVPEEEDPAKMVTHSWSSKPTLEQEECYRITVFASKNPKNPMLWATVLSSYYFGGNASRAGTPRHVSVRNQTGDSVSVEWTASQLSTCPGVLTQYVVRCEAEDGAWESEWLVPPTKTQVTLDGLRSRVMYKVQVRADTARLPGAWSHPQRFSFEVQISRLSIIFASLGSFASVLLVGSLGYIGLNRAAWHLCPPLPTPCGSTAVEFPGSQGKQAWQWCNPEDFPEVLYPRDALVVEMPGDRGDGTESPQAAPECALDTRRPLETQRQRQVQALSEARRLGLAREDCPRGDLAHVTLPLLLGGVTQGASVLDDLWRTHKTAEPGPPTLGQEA

STAT4 activity (GAS-promoter luciferase reporter), IL12Rβ1ΔTM co-transfected alongside IL12Rβ1 and IL12Rβ2	NIH/3T3 migration toward IL12(p40)2, IL12Rβ1ΔTM co-transfected alongside IL12Rβ1	Substance
30 % increase		IL12 (ligand)
	50 % increase	IL12(p40)2 (ligand)
